Measurements from US12723255B2, “Herbicide tolerance genes and methods of use thereof” (priority 2014, dated 2026).
Changes are numbered by the printed parent chain. Read-outs that look alike come from different tables or passages of the source.

B1: MON-HT13: engineered oxygenase protein, amino acid sequence SEQ ID NO:47 (protein)
chain: MHAALTPLTNKYRFIDVQPLTGVLGAEITGVDLREPLDDSTWNEILDAFHTYQVIYFPGQAITNEQHIAFSRRFGPVDPVPILKSIEGYPEVQMIRREANESSRYIGDDWHADSTFLDAPPAAVVMRAIEVPEYGGDTGFLSMYSAWETLSPTMQATIEGLNVVHSATKVFGSLYQATNWRFSGTSVKVMDVDAGDRETVHPLVVTHPVTGRRALYCNQVYCQKIQGMTDAESKSLLQFLYEHATQFDFTCRVRWKKDQVLVWDNLCTMHRAVPDYAGKFRYLTRTTVAGDKPSR
B2: MON-HT15: engineered oxygenase protein, amino acid sequence SEQ ID NO:49 (protein)
chain: B1 chain with F14H, T153A, G184N, V220I
B3: MON-HT17: engineered oxygenase protein, amino acid sequence SEQ ID NO:51 (protein)
chain: B1 chain with G184N

Key:
[1] = kinetic analysis, non-endpoint assay at 23° C.; type: biochemical; conditions: for Vmax 2,4-D / Km / Vmax Quizalofop: Table 10 series, unit as defined
Description: For the fifth screen, recombinant protein for each of the eleven engineered proteins was produced and purified for an in-depth biochemical analysis. This biochemical analysis included: (1) kinetic analysis (Vmax and Km), (2) activity assays over a range of temperatures, (3) protein melting analysis, (4) activity on additional AOPP herbicides substrates, and (5) mass spectrometry analysis on peptides to confirm identity. The biochemical analyses were also done with purified recombinant wild-type protein and MON-HT55 protein for comparison. For the kinetic analysis, a non-endpoint assay was conducted at 23° C. with either quizalofop-P or 2,4-D as substrate. The recombinant proteins for these assays were produced in bacteria and purified using a 6-His tag fused at the C-terminal end of the protein. Results of the kinetic analysis with either quizalofop-P or 2,4-D as substrate are presented for ten of the engineered proteins, wild-type protein, and MON-HT55 protein in Table 7 (standard error is shown in parenthetical). Vmax is expressed as specific activity, umol herbicide product mg enzyme-1 min-1; Km expressed as mM herbicide substrate. […] The differentiation of the protein kinetics for MON-HTI and MON-HT7 were surprising because there are only four amino acid differences between MON-HT1 and MON-HT7. Specifically, MON-HT1 has the following amino acids at the indicated position: 182; F105; T112; and V273, and MON-HT7 has the following amino acids at the indicated position: L82; V105; S112; and A273.
Kinetic analysis using a non-endpoint assay was conducted at 23° C. with either quizalofop-P or 2,4-D as substrate, as detailed above for purified protein of the wild-type enzyme, MON-HT1, MON-HT13, MON-HT15, and MON-HT17.

[2] = type: physicochemical; conditions: Table 11 series
Description: A protein melting analysis was also conducted. For the protein melting determinations, purified enzyme was added to 96-well microtiter plates in standard storage buffer (30 mM Tris pH7.5, 150 mM NaCl) with or without 50 uM Fe2+ and 1.0 mM aKG. Protein unfolding was then detected with SYPRO® orange protein gel stain (Invitrogen™ catalog #S6651, Life Technologies, Grand Island, NY) in a BioRad CFX96™ Real time PCR machine (BioRad, Hercules, CA) with readings taken between 10° C. to 95° C. in 0.5° C. steps. […] In contrast, 50 uM Fe2+ and 1.0 mM aKG had little effect on the stability of any of the engineered proteins. MON-HT55, MON-HT3, MON-HT4, MON-HT6, and MON-HT10 had melting temperatures in the range of 41° C. to 48° C., which is below the melting temperature of the wild-type enzyme. MON-HT1, MON-HT2, MON-HT5, MON-HT7, MON-HT8, and MON-HT9 had melting temperatures between 58° C. and 67° C., which is 8° C. to 17° C. higher than the wild-type enzyme. For MON-HT7 and MON-HT1, the difference in melting point was 11° C. in buffer without Fe2+ and aKG and 8° C. in buffer with Fe2+ and aKG. This was surprising since there are only four amino acid differences between the two enzymes.
A protein melting analysis was conducted as detailed above. The melting temperatures of MON-HT13, MON-HT15, and MON-HT17 was similar to the melting temperature of MON-HT1 with T1/2 in buffer in the range of 55-58° C., and with T1/2 in buffer plus Fe2+ and aKG in the range of 60-62° C.

[3] = enzyme activity assay at 23° C. with purified enzyme; type: biochemical; conditions: for activity with fluroxypyr as the substrate / activity with triclopyr as the substrate: not robust enough to quantify; for MCPA Km / MCPA Vmax / Mecoprop Km: percentage of wild-type RdpA, set at 100%
Description: The enzyme activity of MON-HT protein variants with triclopyr, fluroxypyr, MCPA, MCPB, mecoprop, as substrates was determined using the enzyme activity assay conducted at 23° C. with purified enzyme. The activity was recorded as the maximum activity as a percentage of the wild-type RdpA enzyme's activity, which was set at 100%. […] The enzymatic activity with mecoprop as a substrate was reduced for each of the MON-HT1, MON-HT13, MON-HT15, and MON-HT17 variants compared to the wild-type RdpA enzyme. An unexpected result was that enzymatic activity with MCPA as a substrate was roughly 6-fold greater for MON-HT1, and approximately 10-fold greater for MON-HT13, MON-HT15, and MON-HT17 compared to the wild-type RdpA enzyme.

[4] = tested on: transgenic soybean plants; assay: R0 soybean 2,4-D spray test of 2,4-D optimized variants; type: in vivo; conditions: for tolerance to 2,4-D treatment: 2× application rate, soy
Description: An additional five engineered proteins optimized for activity for 2,4-D were then selected for analysis in transgenic soybean. DNA constructs were produced for expressing MON-HT13 (SEQ ID NO:47), MON-HT14 (SEQ ID NO:48), MON-HT15 (SEQ ID NO:49), MON-HT17 (SEQ ID NO:51), and MON-HT18 (SEQ ID NO:52) with codon usage optimized for dicot expression. The operably linked expression elements (promoter, leader, intron, CTP, and 3′UTR) were identical in all of the constructs. Leaf samples were taken from R0 plantlets and single copy plants were identified using a PCR-based assay. When the single-copy R0 plants had approximately two to three trifoliate leaves, they were treated with either 1.5 lb ae/acre (2×) or 3.0 lb ae/acre (4×) of 2,4-D. Seven days after herbicide application, the plants were scored for herbicide injury based on the percent area of the plant showing injury, as indicated above.

[5] = 23° C., read-out: Km Quizalofop
[6] = 2,4-D rate 2X (1.5 lb ae/acre), single copy R0 soy, seven days after application

| Molecule | enzymatic activity with quizalofop compared with MON-HT1 [1] | Vmax 2,4-D [1] | Km ([1]; read-out: Km 2,4-D) [µM] | Vmax Quizalofop ([1]; 23° C.) | Km [1, 5] [µM] | Melting temp, Buffer [2] [°C] | Melting temp, Buffer plus Fe2+ and aKG [2] [°C] | activity with MCPB as the substrate [3] | enzymatic activity with MCPA greater compared to the wild-type RdpA enzyme [3] | activity with fluroxypyr as the substrate [3] | activity with triclopyr as the substrate [3] | MCPA Km [3] [%] | MCPA Vmax [3] [%] | Mecoprop Km [3] [%] | Events with 20-50% injury [4, 6] | Events with <20% injury [4, 6] | tolerance to 2,4-D treatment [4] |
| --- | --- | --- | --- | --- | --- | --- | --- | --- | --- | --- | --- | --- | --- | --- | --- | --- | --- |
| B1 | roughly similar to the activity of MON-HT1 | 3.38 (0.05) umol herbicide product mg enzyme-1 min-1 | 80 | 1.51 (0.05) umol herbicide product mg enzyme-1 min-1 | 120 | 57 | 62 | no detectable activity | approximately 10 fold | detectable activity | detectable activity | 68 | 1800 | 92 | 1 | 12 | excellent tolerance |
| B2 | roughly similar to the activity of MON-HT1 | 3.53 (0.04) umol herbicide product mg enzyme-1 min-1 | 70 | 1.52 (0.06) umol herbicide product mg enzyme-1 min-1 | 120 | 55 | 60 | no detectable activity | approximately 10 fold | detectable activity | detectable activity | 59 | 1300 | 57 | – | 5 | excellent tolerance |
| B3 | roughly similar to the activity of MON-HT1 | 2.91 (0.04) umol herbicide product mg enzyme-1 min-1 | 70 | 1.53 (0.05) umol herbicide product mg enzyme-1 min-1 | 140 | 57 | 61 | no detectable activity | approximately 10 fold | detectable activity | detectable activity | 62 | 1400 | 65 | – | 12 | excellent tolerance |
